These results are taken from patent publication US20230331828A1 (published 2023).

To fix the notation:
B1: h2731 (antibody, V domains shown)
VH: EVQLLESGGGLVQPGGSLRLSCAASGFTFSNYGMSWVRQAPGKGLEWVASIRSGSGRTYYSDNVKGRFTISRDNSKNTLYLQMNSLRAEDTAVYYCVRYDHYSGSSDYWGQGTLVTVSS
VL: DVVMTQSPLSLPVTLGEPASISCKSSQSLLDYDGKTYLNWLLQKPGQSPQRLIYRVTNRDTGVPDRFSGSGSGTDFTLKISRVEAEDVGVYYCWQGTHFPRSFGQGTKVEIK
notes: Humanized IgG mAb; Only the variable domains are tied to the construct
B2: h2931 (antibody, V domains shown)
VH: B1 VH with Y32F, I51V, S103T, S105T
VL: B1 VL
notes: also called PB-0576
B3: h2731 Fab (Fab, V domains shown)
VH: B1 VH
VL: B1 VL
B4: h2726 Fab (Fab, V domains shown)
VH: B1 VH
VL: B1 VL with L15P, R55K, T57S, T61S, S102T
B5: h2831 Fab (Fab, V domains shown)
VH: B1 VH with Y32F, I51V, S105T
VL: B1 VL
B6: h2931 Fab (Fab, V domains shown)
VH: B1 VH with Y32F, I51V, S103T, S105T
VL: B1 VL
B7: h2831 (antibody, V domains shown)
VH: B1 VH with Y32F, I51V, S105T
VL: B1 VL
notes: Humanized IgG mAb; also called PB-0575
B8: h2726 (antibody, V domains shown)
VH: B1 VH
VL: B1 VL with L15P, R55K, T57S, T61S, S102T
notes: Humanized IgG mAb; Only the variable domains are tied to the construct; also called PB-0573
B9: bapineuzumab Fab (Fab, V domains shown)
VH: B1 VH with S55G
VL: B1 VL with L15P, Y32S, R55L, T57S, N58K, R59L, T61S, S102T
notes: also called hBP

Numbering of substitutions follows the chain as printed. Where “and” joins values, the source holds several entries; their conditions need not be identical. Equal values may be shown once. Bounds are passed on as bounds.

T3 sequence (peptide, as listed by the source): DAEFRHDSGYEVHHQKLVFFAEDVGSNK

For one test, the target named is soluble Aβ (Aβ42) aggregates (human, unlabeled, biotinylated or 9:1 unlabeled:biotinylated (position of biotin not stated)). Put plainly: cell-based or functional assay.
Chain of soluble Aβ (Aβ42) aggregates (human, unlabeled, biotinylated or 9:1 unlabeled:biotinylated (position of biotin not stated)) (peptide, as listed by the source): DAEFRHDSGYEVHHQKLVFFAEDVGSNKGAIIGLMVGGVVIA
Turning to B1, the “blockade of binding of soluble Aβ to rat hippocampal neurons at 1:50 molar mAb:Aβ42 ratio” value is greater than 90%.

The target of another test is T1, AβpE3-42 (human, N-terminal pyroglutamate at position 3 of Aβ).
T1 construct: also called pyroglutamate-3 Aβ; pyroglutamate-modified Aβ
T1 sequence (peptide, as listed by the source): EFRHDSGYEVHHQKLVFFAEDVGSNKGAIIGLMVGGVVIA
Nature of the test: direct binding to AβpE3-42 (FIG. 27).
On to B1, for which the binding result was “no binding (tested: 100 ng/ml)”.

A further test deals with T2, Aβ1-42 fibrils (human).
T2 construct: Aβ1-42 polypeptide, HFIP-treated, incubated in 10 mM HCl at 37 C for 24 h, pelleted fibrillar fraction, sonicated; Multimeric fibril; also called fibril Aβ42; fibrillar Aβ42
Put plainly: direct binding to fibrillar Aβ1-42 (FIG. 27).
For the molecule B1, the EC50 was 0.0081 µg/mL and 0.054 nM.

A further test deals with soluble Aβ oligomers (Example 8) (UniProt P05067 672-713, biotin on the biotinylated preparation and on one tenth of the 9:1 mixture (position not given)). Nature of the test: direct ELISA; plate coated with soluble Aβ oligomers, antibody titrated. The method, then: The samples were incubated for 2 hours at room temperature. Plates were washed 4 times with TBS. 0.1% tween 20. Goat anti-human (H+L) HRP (Jackson Immunoresearch, PA) was diluted 1/5000 in 0.1% BSA/PBS 0.1% tween 20, added at 100 μl/well and incubated 1 hour at room temperature. Plates were washed 4 times and o-phenylenediamine dihydrochloride tablets (ThermoFisher) were prepared as per manufacturer instructions. 100 μl was added per well and incubated for 15 minutes at room temperature. […] Curves and resulting EC₅₀ estimations represent nonlinear 3-parameter least-squares fit of data using GraphPad Prism software.
As to B2, the EC50 is 0.023 µg/mL and 0.15 nM.

In another test the target is T2, Aβ1-42 fibrils. Nature of the test: SPR (BIAcore T200); Aβ1-42 fibrils immobilized, Fab as analyte; global 1:1 fit. The procedure:
(§1) Fibrils were immobilized on sensor chip CMS (GE Healthcare Life Sciences) via amine coupling to a level to ensure a maximum binding of analyte of approximately 100 RU. Various concentrations of antibodies or Fabs (ranging from 1 nM to 100 nM) were passed over the coupled ligand at 30 μL/min in running buffer (HBS+0.05% P-20, 1 mg/mL BSA) for 300 s association time and 1200 s dissociation time. Regeneration of the chip surface was accomplished by 2 short injections of 10 mM Glycine-HCl at pH 1.7. Data was blank-subtracted to both a sensor not containing ligand and 0 nM analyte concentration. Analysis was performed using a global 1:1 fit with BIAcore Insight Evaluation software (v2.0) with bulk refractive index set to zero RU.
For the molecule B3, the koff is 0.000289 s⁻¹ and the kon came out at 129000 M⁻¹ s⁻¹.
As for B4, the koff was determined as 0.000259 s⁻¹ and the kon was 129000 M⁻¹ s⁻¹.
For B5 the same measures were 0.000248 s⁻¹ and 108000 M⁻¹ s⁻¹.
For B6 the same measures were 0.000199 s⁻¹ and 123000 M⁻¹ s⁻¹.

For another test, the target named is T2, Aβ1-42 fibrils. Put plainly: SPR (BIAcore T200); Aβ1-42 fibrils immobilized, antibody as analyte; global 1:1 fit. The procedure: (§2) Fibrils were immobilized on sensor chip CMS (GE Healthcare Life Sciences) via amine coupling to a level to ensure a maximum binding of analyte of approximately 50 RU. […] Regeneration of the chip surface was accomplished by 2 short injections of 10 mM Glycine-HCl pH 1.7. Data was blank subtracted to both a sensor not containing ligand and 0 nM analyte concentration. Analysis was performed using a global 1:1 fit with BIAcore Insight Evaluation software (v2.0) with bulk refractive index set to zero RU.
Molecule B1 gave a koff of 2.62e-05 s⁻¹ and a kon of 372000 M⁻¹ s⁻¹.
The corresponding values for B2 are 2.05e-05 s⁻¹ and 335000 M⁻¹ s⁻¹.
The molecule B7 gave a koff of 2.94e-05 s⁻¹ and a kon of 265000 M⁻¹ s⁻¹.
The corresponding values for B8 are 2.12e-05 s⁻¹ and 393000 M⁻¹ s⁻¹.

The next test concerns the target T3, Aβ1-28 (human).
T3 construct: Bought peptide (Bachem); also called Aß1-28 monomer; A131-28
Put plainly: SPR (Biacore T200); antibody captured by anti-human Fc, Aβ1-28 as analyte; global 1:1 fit. The method, then:
(§3) Determination of binding affinity of anti-Aß candidates to Aß₁₋₂₈ (Bachem, Torrance, CA) was performed using a Biacore T200. Anti-human Fc antibody was immobilized to a CM3 sensor chip (GE Healthcare Life Sciences) via amine coupling and used to capture Aß antibodies.
(§4) Various concentrations of Aß₁₋₂₈ (analyte, ranging from concentrations of 100 nM down to 0.39 nM, serial diluted 2-fold each dilution step) were passed over the captured ligand at 50 μl/min in running buffer (HBS+0.05% P-20, 1 mg/mL BSA) for 240 s association time and 900 s dissociation time. Data were blank subtracted to both an irrelevant sensor not containing ligand, and buffer runs containing 0 nM analyte concentration. Analysis was performed using a global 1:1 fit with Biacore Evaluation software (v3.0).
B1 had a koff of 0.000595 s⁻¹ and a kon of 119000 M⁻¹ s⁻¹.
For B2 the same measures were 0.000412 s⁻¹ and 94700 M⁻¹ s⁻¹.
The corresponding values for B7 are 0.000508 s⁻¹ and 73100 M⁻¹ s⁻¹.
Consider B8, for which the koff was 0.000555 s⁻¹ and the kon worked out at 92300 M⁻¹ s⁻¹.

For a further test, the target named is T2, Aβ1-42 fibrils. Nature of the test: SPR (BIAcore T200); Aβ1-42 fibrils immobilized, Fab as analyte; global 1:1 fit; apparent KD. The method, then: as §1
For the molecule B3, the Kd amounted to 2.24 nM.
Still for that read-out and setting: for B4 the value was 2.01 nM; for B5, 2.31 nM.
On the same count and under the same terms, then B9, with 5.34 nM; and B6, with 1.62 nM.

In a further test the target is T3, Aβ1-28. Nature of the test: SPR (Biacore T200); antibody captured by anti-human Fc, Aβ1-28 as analyte; global 1:1 fit; apparent KD. The method, then: as §3, §4
Take B1: the Kd turned out to be 5.01 nM.
Still for that read-out and setting: for B2 the value was 4.35 nM.
The same measure, in the same setting: for B7 the value was 6.95 nM; for B8, 6.01 nM.

Another test has as its target T2, Aβ1-42 fibrils. Put plainly: SPR (BIAcore T200); Aβ1-42 fibrils immobilized, antibody as analyte; global 1:1 fit; apparent KD (avidity). The procedure: as §2
As for B1, the Kd was 0.0704 nM.
Still for that read-out and setting: for B2 the value was 0.0612 nM; for B7, 0.111 nM; for B8, 0.054 nM.

The target in another test is T2, Aβ1-42 fibrils. Put plainly: competition ELISA; plate coated with fibril Aβ42; competitor hBP-biotin; IC50 of test divided by IC50 of hBP. The procedure: To generate fibrils, Aβ 1-42 polypeptides, previously treated with HFIP (hexafluoroisopropanol) and dried, were resuspended in DMSO to 5 mM, then further diluted to 100 uM with 10 mM HCl. Samples were incubated at 37° C. for 24 h, and then centrifuged to separate soluble and fibrillar species. The pellet was the resuspended in 1×D-PBS to the original volume and sonicated before use.
Plates were coated with 0.5 mg/ml of fibril Aβ 42 and blocked, e.g., with 1% BSA/PBS. […] 100 ul of GE Streptavidin HRP diluted 1/10,000 was then added and incubated for 30 minutes. Plates were then washed 6× with TTBS. Thermo Fisher o-phenylenediamine dihydrochloride (OPD) substrate was prepared fresh per manufacturers direction, and 100 ul per well was added. The reaction was incubated for 15 minutes and the reaction stopped with 50 ul 2N H₂SO₄.
Take B1: the “IC50 ratio (test:hBP)” value was found to be 0.61 ratio.
On to B2, for which the “IC50 ratio (test:hBP)” value was 0.59 ratio.
The same measure, in the same setting: for B7 the value was 0.77 ratio; for B8, 0.68 ratio.

The target of the next test is T4, Aβ pathology (plaques) in human AD brain tissue (human, UniProt P05067 672-713).
T4 construct: Native tissue deposits, heterogeneous; also called tissue Aβ pathology; Aβ plaques
Put plainly: IHC on frozen human AD brain sections, brain AD 11-97; % stained area against antibody concentration (0.03-9 µg/ml). The procedure:
(§5) Tissue Sectioning and Fixation. The unfixed frozen brain tissue samples were embedded in Tissue-Tek OCT (Sakura Finetek) in cryomolds dipped in a mixture of 2-methylbutane and dry ice slurry (−60° C.) then stored at −80° C. until sectioning. Serial 10 μm thick cryosections were generated using a Leica 3050S cryostat. The sections were directly thaw-mounted on positively charged glass slides and were stored at −20° C. until use. Prior to immunohistochemistry IHC procedures, the slides were immersed in 10% neutral buffered formalin solution for 10 minutes at 4° C., rinsed in PBS, then incubated for an hour at 37° C. in a glucose oxidase solution (20 mM beta D(+) glucose, 2 mM sodium azide, and 2 units/mL glucose oxidase in 1×PBS). The slides were rinsed 3 times for 5 minutes in PBS before they were transferred onto staining racks for processing in an automated stainer.
(§6) Antibody biotinylation. The humanized IgG antibodies were biotinylated using a non-covalent method, by means of incubation with a biotin-conjugated goat anti-human monovalent fab fragment (Jackson ImmunoResearch) in a ratio of 1:4, for 1 hour at room temperature. Unbound excess Fab was absorbed by pre-incubation with human serum for an additional hour before use. The freshly prepared antibodies were then loaded into the stainer for immediate application to tissue sections.
(§7) Immunostaining. The staining was performed in an automated Leica Bond Rx Stainer (Leica Biosystems), using the Bond Research Kit (DS980, Leica Biosystems) and the avidin-biotin amplified immuno-peroxidase detection system. Each biotinylated anti-Aβ antibody, or a human IgG control, was applied to the sections, at specified concentrations, for one hour and the staining was visualized using the avidin-biotin amplification system (ABC Elite Standard, PK-6100; Vector Laboratories). Hematoxylin counter-staining of nuclei was subsequently applied to sections before dehydration in an ascending series of alcohols, clearing in xylene, cover-slipping, and air-drying.
Consider B1, for which the “Area Under Curve” value amounted to 50.6.
For B2, the “Area Under Curve” value came out at 47.7.
On the same count and under the same terms, for B7 the value was 49.2; for B8, 50.2.

A further test concerns the target T4, Aβ pathology (plaques) in human AD …. Put plainly: IHC on frozen human AD brain sections, brain AD 13-75; % stained area against antibody concentration (0.03-9 µg/ml). The method, then: as §5, §6, §7
For the molecule B1, the “Area Under Curve” value came to 150.
In the case of B2, the “Area Under Curve” value was found to be 139.
Still for that read-out and setting: then B7, with 139; and B8, with 149.

The target is the same in the next test. Nature of the test: IHC on frozen human AD brain sections, brain AD 14-11; % stained area against antibody concentration (0.03-9 µg/ml). The procedure:
as §5, §6, §7
B1: the “Area Under Curve” value is 149.
The same measure, in the same setting: then B2, with 134; and B7, with 149.
On the same count and under the same terms, then B8, with 149.

The next test has the same target. Nature of the test: IHC on frozen human AD brain sections, brain AD 15-19; % stained area against antibody concentration (0.03-9 µg/ml). The procedure: as §5, §6, §7
As for B1, the “Area Under Curve” value is 52.7.
Still for that read-out and setting: for B2 the value was 44.8; for B7, 49.7.
Same read-out and setting: then B8, with 52.1.
